Data published in article PMC2819628 (The Biochemical journal, 2010).

Biological target: T1, Isu1, mature form (amino acids 35-165) (yeast, UniProt Q03020 35-165)
T1 sequence (looked up): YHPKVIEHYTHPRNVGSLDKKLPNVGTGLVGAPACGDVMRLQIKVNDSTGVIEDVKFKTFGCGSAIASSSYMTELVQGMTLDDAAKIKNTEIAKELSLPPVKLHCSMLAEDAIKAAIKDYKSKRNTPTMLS
Test: other fluorescence titration

B1: Yfh1 (yeast frataxin), wild type, mature form (amino acids 52-174), holo form (natural protein, S. cerevisiae (yeast), UniProt Q07540 52-174, looked up)
chain: VESSTDGQVVPQEVLNLPLEKYHEEADDYLDHLLDSLEELSEAHPDCIPDVELSHGVMTLEIPAFGTYVINKQPPNKQIWLASPLSGPNRFDLLNGEWVSLRNGTKLTDILTEEVEKAISKSQ
B1: binds.
